Data from PMC5260909.

Columns and labels:
[1] = target: Endogenous NMDAR (GluN1 subunit) of mouse cortical neurons and mouse brain (mouse (endogenous in cortical neurons of Swiss mice)) (UniProt P35438)
[2] = target: NMDAR of rat GluN1-1b WT with WT GluN2A, on transfected HEK-293 cells (rat) (UniProt Q00959)
[3] = target: NMDAR of rat GluN1-1b WT with WT GluN2A, on transfected HEK-293 cells (rat) (UniProt Q00959); remark: listed apart in the source

Chain of UniProt Q00959 (Q00959 whole entry, looked up): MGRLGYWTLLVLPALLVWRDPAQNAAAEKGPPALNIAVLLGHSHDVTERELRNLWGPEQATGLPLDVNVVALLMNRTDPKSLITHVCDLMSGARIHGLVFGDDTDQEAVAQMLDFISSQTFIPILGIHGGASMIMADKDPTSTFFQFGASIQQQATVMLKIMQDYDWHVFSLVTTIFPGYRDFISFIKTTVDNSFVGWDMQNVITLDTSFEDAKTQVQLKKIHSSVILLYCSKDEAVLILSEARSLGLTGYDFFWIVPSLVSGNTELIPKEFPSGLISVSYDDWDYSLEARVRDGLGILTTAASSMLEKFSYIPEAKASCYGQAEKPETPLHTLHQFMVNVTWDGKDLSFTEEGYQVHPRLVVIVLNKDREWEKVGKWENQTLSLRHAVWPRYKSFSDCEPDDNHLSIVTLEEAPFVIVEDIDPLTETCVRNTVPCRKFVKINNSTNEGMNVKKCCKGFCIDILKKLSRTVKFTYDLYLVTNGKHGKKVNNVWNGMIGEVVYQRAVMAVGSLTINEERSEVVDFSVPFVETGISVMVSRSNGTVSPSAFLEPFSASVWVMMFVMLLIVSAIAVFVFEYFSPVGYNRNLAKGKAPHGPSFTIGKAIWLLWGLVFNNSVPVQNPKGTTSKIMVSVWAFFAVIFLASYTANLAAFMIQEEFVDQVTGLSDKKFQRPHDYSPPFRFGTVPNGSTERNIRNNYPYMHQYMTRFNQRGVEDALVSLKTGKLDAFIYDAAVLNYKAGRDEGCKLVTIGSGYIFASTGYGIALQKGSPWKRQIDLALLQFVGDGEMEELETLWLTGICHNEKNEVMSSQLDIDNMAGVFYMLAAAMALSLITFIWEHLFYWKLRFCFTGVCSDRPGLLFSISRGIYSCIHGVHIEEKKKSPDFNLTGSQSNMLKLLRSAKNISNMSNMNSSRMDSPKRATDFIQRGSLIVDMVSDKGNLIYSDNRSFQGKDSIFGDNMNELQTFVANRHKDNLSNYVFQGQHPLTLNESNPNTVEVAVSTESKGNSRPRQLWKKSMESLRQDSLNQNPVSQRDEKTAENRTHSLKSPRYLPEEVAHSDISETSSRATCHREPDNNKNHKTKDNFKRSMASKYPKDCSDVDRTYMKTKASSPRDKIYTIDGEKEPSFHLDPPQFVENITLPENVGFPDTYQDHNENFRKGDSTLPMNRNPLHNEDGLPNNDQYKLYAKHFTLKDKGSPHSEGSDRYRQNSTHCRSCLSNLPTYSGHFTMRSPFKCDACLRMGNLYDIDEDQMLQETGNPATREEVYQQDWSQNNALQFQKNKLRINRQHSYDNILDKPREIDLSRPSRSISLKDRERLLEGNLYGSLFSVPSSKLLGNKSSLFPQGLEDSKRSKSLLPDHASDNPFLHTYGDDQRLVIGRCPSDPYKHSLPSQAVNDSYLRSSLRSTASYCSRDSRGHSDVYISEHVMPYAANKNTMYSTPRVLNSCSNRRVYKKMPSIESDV

Row | Substance | NMDA-induced calcium influx (Fura-2 video imaging) in primary cultures of mouse cortical neurons; potentiation after 45 min with tPA 300 nM [1] [%] | NMDA-induced calcium influx in primary cultures of mouse cortical neurons; tPA 300 nM together with the antibody of clone 6C9B6 10 μg/ml (% of potentiation) [1] | NMDA-induced calcium influx (Fura-2 video imaging) in HEK-293 cells transfected with GluN1-1b WT and GluN2A; potentiation after 20 min with tPA 300 nM (% of potentiation) [2] | NMDA-induced calcium influx in HEK-293 cells transfected with GluN1-1b WT, GluN2A and tPA WT; change after 20 min with the antibody Glunomab 10 μg/ml (% of potentiation) [3]
1 | Human tissue-type plasminogen activator (tPA, Actilyse) (enzyme) | 31 | 38 | 27 | –
2 | WT rat tissue-type plasminogen activator (tPA WT), expressed in HEK-293 cells (from UniProt P19637 33-559) (enzyme) | – | – | – | -18
